From patent publication US20160195541A1 come the findings set out here.

For test [1], the target named is aggregated human IgG (aggregated Beriglobin, aggregated fraction isolated by size exclusion chromatography) (human). Kind of test: FACS competition on Raji cells (FACS007), inhibition of aggregated IgG binding to cell FcγRIIB at 0.03125 µg/µL SM101.
The target is the same in test [2]. Kind of test: apparent KD, Langmuir fit of FACS competition on Raji cells (FACS007).
Test [3] has the same target. Description: sigmoid logistic fit of FACS competition on Raji cells (FACS021): inhibition of aggregated IgG binding to cell FcγRIIB.
Test [4] shares this target. Description: apparent KD, Langmuir fit of FACS competition on Raji cells (FACS021).
The target is the same in test [5]. Description: FACS competition on Raji cells (FACS007), inhibition of aggregated IgG binding to cell FcγRIIB at 0.0078 µg/µL SM101.
The target is the same in test [6]. Description: apparent KD, FACS competition on Raji cells, mean of 25 experiments.
For test [7] the target is unchanged. Description: FACS competition on Raji cells (FACS007), inhibition of aggregated IgG binding to cell FcγRIIB at 0.0156 µg/µL SM101.
The target is the same in test [8]. Description: FACS competition on Raji cells (FACS021), inhibition of aggregated IgG binding to cell FcγRIIB at 0.03125 µg/µL.
Test [9] shares this target. Kind of test: FACS competition on Raji cells (FACS021), inhibition of aggregated IgG binding to cell FcγRIIB at 0.0625 µg/µL.
For test [10] the target is unchanged. Kind of test: sigmoid logistic fit of FACS competition on Raji cells (FACS007): inhibition of aggregated IgG binding to cell FcγRIIB.
Test [11] has the same target. Description: apparent KA, Langmuir fit of FACS competition on Raji cells (FACS007).
Test [12] shares this target. Description: apparent KD, FACS competition on Raji cells, mean of tests #1-17 without #4 and #6.
Test [13] shares this target. Description: apparent KD, FACS competition on Raji cells, mean of tests #18-25.
The target is the same in test [14]. Kind of test: FACS competition on Raji cells (FACS007), inhibition of aggregated IgG binding to cell FcγRIIB at 0.25 µg/µL SM101.
Test [15] shares this target. Kind of test: apparent KD, FACS competition on Raji cells (Example 1), as told in the description.
Test [16] has the same target. Description: FACS competition on Raji cells (FACS007), inhibition of aggregated IgG binding to cell FcγRIIB at 0.5 µg/µL SM101.
Test [17] shares this target. Description: FACS competition on Raji cells (FACS007), inhibition of aggregated IgG binding to cell FcγRIIB at 0.125 µg/µL SM101.
The target is the same in test [18]. Kind of test: apparent KA, Langmuir fit of FACS competition on Raji cells (FACS021).
For test [19] the target is unchanged. Kind of test: FACS competition on Raji cells (FACS007), inhibition of aggregated IgG binding to cell FcγRIIB at 0.0625 µg/µL SM101.
Test [20] has the same target. Kind of test: FACS competition on Raji cells, mean of 25 experiments.
Test [21] shares this target. Kind of test: FACS competition control on Raji cells: constant aggregated Beriglobin, CSA in place of SM101; bound aggregated IgG detected with anti-human IgG(H+L)-PE; interaction tested for blocking: aggregated IgG with membrane-bound FcγRIIB.
Where [22] appears, read: SM101 investigational medicinal product.

“And” between values parts separate entries of the source, which are not always exact repeats. Equal entries are not always repeated.

“SM101 (soluble human FcγRIIB, sFcγRIIB) (from UniProt P31994 46-217) (receptor)”: the norm. Signal (% inhibition) in [1] turned out to be 70.5%; in test [5], 23.2%; in [7] it was 43%; in test [8] (setting [22]), 75.7%; in [8] (SM101 reference standard), 75.9%; in [9] (setting [22]), 89.6%. Further, the norm. Signal (% inhibition) was 87.3% in test [9] (SM101 reference standard); 98.4% in [14]; 97.3% in test [16]; 94.9% in test [17]; 91.2% in test [19]. For the same molecule, the Kd in test [2] is 990 nM; in test [4], 740 nM and 900 nM; in test [6], 530 nM; in test [12], 680 nM; in test [13] it was 260 nM; in [15], 980 nM. Moreover, the IC50 (commonly the midpoint of a concentration-inhibition curve) in [3] was 12.9 µg/mL and 16.2 µg/mL; in [10], 17.7 µg/mL; in test [20], 10.6 µg/mL. Also, the Ka in [11] was 1.02e+06 M⁻¹; in test [18], 1.35e+06 M⁻¹ and 1.11e+06 M⁻¹.

B1: chicken serum albumin (protein, UniProt P19121 24-615, looked up)
Albumin: FARDAEHKSEIAHRYNDLKEETFKAVAMITFAQYLQRCSYEGLSKLVKDVVDLAQKCVANEDAPECSKPLPSIILDEICQVEKLRDSYGAMADCCSKADPERNECFLSFKVSQPDFVQPYQRPASDVICQEYQDNRVSFLGHFIYSVARRHPFLYAPAILSFAVDFEHALQSCCKESDVGACLDTKEIVMREKAKGVSVKQQYFCGILKQFGDRVFQARQLIYLSQKYPKAPFSEVSKFVHDSIGVHKECCEGDMVECMDDMARMMSNLCSQQDVFSGKIKDCCEKPIVERSQCIMEAEFDEKPADLPSLVEKYIEDKEVCKSFEAGHDAFMAEFVYEYSRRHPEFSIQLIMRIAKGYESLLEKCCKTDNPAECYANAQEQLNQHIKETQDVVKTNCDLLHDHGEADFLKSILIRYTKKMPQVPTDLLLETGKKMTTIGTKCCQLGEDRRMACSEGYLSIVIHDTCRKQETTPINDNVSQCCSQLYANRRPCFTAMGVDTKYVPPPFNPDMFSFDEKLCSAPAEEREVGQMKLLINLIKRKPQMTEEQIKTIADGFTAMVDKCCKQSDINTCFGEEGANLIVQSRATLGIGA
In [21], B1 displayed a Median PE-A of aggregated IgG bound to Raji cells at 0.0156 µg/µL CSA of 3770, a Median PE-A of aggregated IgG bound to Raji cells at 0.03125 µg/µL CSA of 3700, a Median PE-A of aggregated IgG bound to Raji cells at 0.0625 µg/µL CSA of 3830 and a Median PE-A of aggregated IgG bound to Raji cells at 0.125 µg/µL CSA of 4140. In test [21], this molecule registered a Median PE-A of aggregated IgG bound to Raji cells at 0.25 µg/µL CSA of 4570, a Median PE-A of aggregated IgG bound to Raji cells at 0.5 µg/µL CSA of 4940 and a Median PE-A of aggregated IgG bound to Raji cells at the CSA concentration labelled 0'078 (0.0078 µg/µL by the series in legend paragraph 80) of 4180.
